Earlier results as cited in patent US5861377A, “Antistasin type serine protease inhibitors” (Novartis AG, priority 1994, dated 1999).

Columns and labels:
[1] = biological target: T1, Trypsin (Bos taurus, UniProt P00760); details: bovine trypsin; data from Dunwiddie et al.
T1 sequence (P00760 24-246): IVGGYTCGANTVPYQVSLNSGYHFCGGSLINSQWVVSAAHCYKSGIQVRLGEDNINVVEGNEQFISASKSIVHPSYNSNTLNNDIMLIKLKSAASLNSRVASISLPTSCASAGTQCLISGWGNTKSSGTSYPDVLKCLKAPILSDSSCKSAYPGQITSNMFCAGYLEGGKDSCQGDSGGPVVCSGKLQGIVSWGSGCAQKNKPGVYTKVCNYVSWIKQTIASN

[2] = biological target: Factor Xa (Homo sapiens, UniProt P00742); details: data from Dunwiddie et al.
Chain of Factor Xa (P00742 235-488 limits assumed): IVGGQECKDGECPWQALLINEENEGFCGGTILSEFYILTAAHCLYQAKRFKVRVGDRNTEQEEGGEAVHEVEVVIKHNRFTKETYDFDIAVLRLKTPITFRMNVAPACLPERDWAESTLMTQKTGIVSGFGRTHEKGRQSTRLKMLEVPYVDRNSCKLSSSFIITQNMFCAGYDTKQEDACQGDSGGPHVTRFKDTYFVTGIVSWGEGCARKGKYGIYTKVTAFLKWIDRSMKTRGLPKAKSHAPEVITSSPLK
Chain of Factor Xa (P00742 41-179 partner limits assumed): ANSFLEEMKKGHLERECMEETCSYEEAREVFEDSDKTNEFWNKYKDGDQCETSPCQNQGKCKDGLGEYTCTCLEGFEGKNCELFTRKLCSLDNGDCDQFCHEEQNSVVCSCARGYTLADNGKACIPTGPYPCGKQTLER

IC50 [1]: 5 nM
IC50 [2]: 1 nM
B1: Antistasin: cysteine-rich serine proteinase inhibitor of 119 amino acids from the Mexican leech Haementeria officinalis; factor Xa inhibitor (protein)
chain: EGPFGPGCEEAGCPEGSACNIITDRCTCSGVRCRVHCPHGFQRSRYGCEFCKCRKEPMKATCDISECPEGMMCSRKTNKCDCKIDINCRKTCPNGLKRDKGCEYCECRFKRKLIPRLS
